PMC10397247

Experiments:
Assay in all cases: two-hybrid library CCmax;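 also: natural log of median RNA to DNA barcode read ratio; higher means stronger binding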
4H3049-AA = target: T1, 4H3049-AA; details: mean of both orientations
T1 chain: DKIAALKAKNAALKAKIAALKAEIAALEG

4H432-AA = target: T2, 4H432-AA; details: mean of both orientations
T2 chain: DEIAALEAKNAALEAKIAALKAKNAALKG

4H2760-AA = target: T3, 4H2760-AA; details: mean of both orientations
T3 chain: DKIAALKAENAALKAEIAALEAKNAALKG

4H133-AA = target: T4, 4H133-AA
T4 chain: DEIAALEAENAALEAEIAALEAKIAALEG

4H3915-AA = target: T5, 4H3915-AA; details: mean of both orientations
T5 chain: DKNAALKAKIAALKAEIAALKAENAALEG

4H3619-AA = target: T6, 4H3619-AA; details: mean of both orientations
T6 chain: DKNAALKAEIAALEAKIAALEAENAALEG

4H3094-AA = target: T7, 4H3094-AA; details: mean of both orientations
T7 chain: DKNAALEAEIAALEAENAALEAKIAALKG

4H2621-AA = target: T8, 4H2621-AA; details: mean of both orientations
T8 chain: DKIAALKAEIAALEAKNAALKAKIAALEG

4H1384-AA = target: T9, 4H1384-AA; details: mean of both orientations
T9 chain: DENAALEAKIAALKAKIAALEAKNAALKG

4H249-AA = target: T10, 4H249-AA; details: mean of both orientations
T10 chain: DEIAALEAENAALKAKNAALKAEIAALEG

4H1593-AA = target: T11, 4H1593-AA; details: mean of both orientations
T11 chain: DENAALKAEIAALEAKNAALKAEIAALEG

4H2903-AA = target: T12, 4H2903-AA; details: mean of both orientations
T12 chain: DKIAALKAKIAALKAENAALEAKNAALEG

4H63-AA = target: T13, 4H63-AA; details: mean of both orientations
T13 chain: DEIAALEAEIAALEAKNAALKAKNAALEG

4H446-AA = target: T14, 4H446-AA; details: mean of both orientations
T14 chain: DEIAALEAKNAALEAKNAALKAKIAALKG

4H2580-AA = target: T15, 4H2580-AA; details: mean of both orientations
T15 chain: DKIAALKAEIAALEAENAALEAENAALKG

4H1349-AA = target: T16, 4H1349-AA; details: mean of both orientations
T16 chain: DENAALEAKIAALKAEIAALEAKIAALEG

4H3629-AA = target: T17, 4H3629-AA; details: mean of both orientations
T17 chain: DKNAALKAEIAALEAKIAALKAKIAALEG

4H1449-AA = target: T18, 4H1449-AA; details: mean of both orientations
T18 chain: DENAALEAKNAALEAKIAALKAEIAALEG

4H3449-AA = target: T19, 4H3449-AA; details: mean of both orientations
T19 chain: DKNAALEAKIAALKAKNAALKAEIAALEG

4H341-AA = target: T20, 4H341-AA; details: mean of both orientations
T20 chain: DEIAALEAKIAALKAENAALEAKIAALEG

4H2774-AA = target: T21, 4H2774-AA; details: mean of both orientations
T21 chain: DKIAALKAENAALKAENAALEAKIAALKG

4H235-AA = target: T22, 4H235-AA; details: mean of both orientations
T22 chain: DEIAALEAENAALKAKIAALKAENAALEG

4H324-AA = target: T23, 4H324-AA; details: mean of both orientations
T23 chain: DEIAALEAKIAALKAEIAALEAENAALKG

4H2947-AA = target: T24, 4H2947-AA
T24 chain: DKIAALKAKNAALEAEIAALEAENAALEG

4H3974-AA = target: T25, 4H3974-AA; details: mean of both orientations
T25 chain: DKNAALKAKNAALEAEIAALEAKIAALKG

4H2961-AA = target: T26, 4H2961-AA; details: mean of both orientations
T26 chain: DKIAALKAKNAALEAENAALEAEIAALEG

4H3777-AA = target: T27, 4H3777-AA; details: mean of both orientations
T27 chain: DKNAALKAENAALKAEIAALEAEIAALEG

4H380-AA = target: T28, 4H380-AA; details: mean of both orientations
T28 chain: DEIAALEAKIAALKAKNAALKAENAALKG

4H2604-AA = target: T29, 4H2604-AA; details: mean of both orientations
T29 chain: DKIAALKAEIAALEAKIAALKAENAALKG

4H1878-AA = target: T30, 4H1878-AA; details: mean of both orientations
T30 chain: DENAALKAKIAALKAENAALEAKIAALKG

B1: 4H133-AA (peptide)
chain: DEIAALEAENAALEAEIAALEAKIAALEG
- interaction score (4H3049-AA): 2.17
- interaction score (4H432-AA): -0.168
- interaction score (4H2760-AA): 1.33
- interaction score (4H133-AA): -0.665
- interaction score (4H3915-AA): 1.08
- interaction score (4H3619-AA): -0.325
- interaction score (4H3094-AA): -1.05
- interaction score (4H2621-AA): 0.704
- interaction score (4H1384-AA): 0.598
- interaction score (4H249-AA): 0.33
- interaction score (4H1593-AA): -0.948
- interaction score (4H2903-AA): -1.62
- interaction score (4H63-AA): -1.37
- interaction score (4H446-AA): 0.854
- interaction score (4H2580-AA): -1.27
- interaction score (4H1349-AA): 0.224
- interaction score (4H3629-AA): 1.24
- interaction score (4H1449-AA): 0.176
- interaction score (4H3449-AA): 0.625
- interaction score (4H341-AA): -1.11
- interaction score (4H2774-AA): 0.342
- interaction score (4H235-AA): 0.197
- interaction score (4H324-AA): -0.986
- interaction score (4H2947-AA): -0.964
- interaction score (4H3974-AA): 0.688
- interaction score (4H2961-AA): -1.33
- interaction score (4H3777-AA): 0.631
- interaction score (4H380-AA): -1.13
- interaction score (4H2604-AA): -0.647
- interaction score (4H1878-AA): 1.23
